The values that follow come from patent US20230250158A1 (TALEM THERAPEUTICS, published 2023).

The target in assay [1] is SARS-CoV-2 Spike protein on VSV pseudotyped virus particles (Wuhan-1 isolate Spike sequence) (SARS-CoV-2, UniProt P0DTC2 13-1273). Description: cell-based or functional assay.
The target of a further assay is Wuhan-1. The experiment in a line: flow cytometry on Spike-transfected HEK293F cells, heat map. For orientation: A flow cytometer gives signals particle by particle.
Assay [2] deals with T1, SARS-CoV-2 Spike RBD-hFc (SARS-CoV-2, UniProt P0DTC2 319-541). The experiment in a line: Octet BLI; Fab as analyte over RBD-hFc on AHC sensors; 1:1 kinetic fit.
Assay [3] concerns the target T2, SARS-CoV-2 Spike S1-hFc (SARS-CoV-2, UniProt P0DTC2 16-685). Description: Octet BLI; Fab as analyte over S1-hFc on AHC sensors; 1:1 kinetic fit.
Assay [4] concerns the target T2, SARS-CoV-2 Spike S1-hFc.
For assay [5], the target named is T1, SARS-CoV-2 Spike RBD-hFc.
Assay [6] deals with T1, SARS-CoV-2 Spike RBD-hFc. Description: Octet BLI; Fab as analyte over RBD-hFc on AHC sensors; steady-state analysis. A general note: Biolayer interferometry detects binding as a change in optical thickness at a sensor tip.
The target in assay [7] is T1, SARS-CoV-2 Spike RBD-hFc. The experiment in a line: Octet, Fab as analyte over RBD-hFc on AHC sensor.
Assay [8] concerns the target SARS-CoV-2 Spike on SARS-CoV2-S CHO-K1 cells (wild-type, Wuhan-1) (SARS-CoV-2, UniProt P0DTC2 13-1273). Description: flow cytometry on SARS-CoV2-S CHO-K1 cells, anti-human IgG-PE detection.

Where two headings read alike, the source gives them in different places.

B1: 23-H7 (antibody, V domains shown)
VH: QVQLVQSGAEVKLPGASMKVSCKASGYTFSTYYMHWVRQAPGQGPEWMGVIDPSGGTTSYAQKFHDRIAMTRDTSTSTAYLELSSLRSEDMAVYYCARGGFADAVDYWGQGTLVTVSS
VL: NFMLTQPHSVSGSPGKTVTISCTRNSGSIAGNYVQWYQQRPGSAPTTVIYEDNQRPSGVPDRFSGSIDSSSNSASLTISGLKTEDEADYYCQSYDASHLHVIFGGGTKVTVL
notes: also called bin 2
As to B1, the “Pseudovirus IC50” value in assay [1] amounted to 0.84 µg/mL. Also, the binding result with Wuhan-1 is reported as “binds”.

B2: 23-H7 Fab (Fab, V domains shown)
VH: QVQLVQSGAEVKLPGASMKVSCKASGYTFSTYYMHWVRQAPGQGPEWMGVIDPSGGTTSYAQKFHDRIAMTRDTSTSTAYLELSSLRSEDMAVYYCARGGFADAVDYWGQGTLVTVSS
VL: NFMLTQPHSVSGSPGKTVTISCTRNSGSIAGNYVQWYQQRPGSAPTTVIYEDNQRPSGVPDRFSGSIDSSSNSASLTISGLKTEDEADYYCQSYDASHLHVIFGGGTKVTVL
On to B2, for which the Kd in the assay with SARS-CoV-2 Spike RBD-hFc [2] was 13 nM; with SARS-CoV-2 Spike S1-hFc [3], 14 nM; with SARS-CoV-2 Spike S1-hFc [4], 6 nM; with SARS-CoV-2 Spike RBD-hFc [5] it was 9 nM.

B3: 22-D9 (antibody, V domains shown)
VH: QVQLVQSGAEVKKPGSSVNVSCKTSGGTFNTYSINWVRQAPGQGLEWMGEIIPIFDKPNYAQKFQGRVTITADESTSTAYMELTSLRSDDTAVYYCARGTGYYYGMDVWGQGTTVTVSS
VL: QSVLTQPPSVSGAPRQTVTISCFGSRSNIGNYPVNWYHQVPGKAPKVVVYYDDLLPSGISDRFSGYKSGTSASLTISGLRSEDEADYYCATWDDSLNVWVFGGGTKLTVL
notes: also called bin 4
Take B3: the “Pseudovirus IC50” value in [1] was determined as 4.99 µg/mL. In addition, the binding result in the assay with Wuhan-1 is “binds”.

B4: 22-D9 Fab (Fab, V domains shown)
VH: QVQLVQSGAEVKKPGSSVNVSCKTSGGTFNTYSINWVRQAPGQGLEWMGEIIPIFDKPNYAQKFQGRVTITADESTSTAYMELTSLRSDDTAVYYCARGTGYYYGMDVWGQGTTVTVSS
VL: QSVLTQPPSVSGAPRQTVTISCFGSRSNIGNYPVNWYHQVPGKAPKVVVYYDDLLPSGISDRFSGYKSGTSASLTISGLRSEDEADYYCATWDDSLNVWVFGGGTKLTVL
As to B4, the Kd in the assay with SARS-CoV-2 Spike RBD-hFc [6] was 163 nM; with SARS-CoV-2 Spike RBD-hFc [7], 160 nM.

B5: 21-F2 (antibody, V domains shown)
VH: QVQLVQSGAEVKKPGASVTVSCKTSGYIFTNYDINWVRQAPGQGLEWVGWVNPNSGKVGYAQKFQGRVIMTRSDSESTAYMELTNLTSDDTAVYYCARGHTDFWGQGTLVTVSS
VL: QSVLTQPPSVSEAPRQRVTISCSGSSSNIGNNAVNWYQQLPGRAPKLLIYYDDLLPSGVSDRFSGSKSGTSASLAISGLQSEDEADYYCAAWDDSLNGVVFGGGTQLTVL
On to B5, for which the “Pseudovirus IC50” value in assay [1] is 0.84 µg/mL.

B6: 21-F2 optimized (antibody, V domains shown)
VH: QVQLVQSGAEVKKPGASVTVSCKTSGYIFTNYDINWVRQAPGQGLEWVGWVNPNSGKVGYAQKFQGRVIMTRSDSESTAYMELTQLTSDDTAVYYCARGHTDFWGQGTLVTVSS
VL: QSVLTQPPSVSEAPRQRVTISCSGSSSNIGNNAVNWYQQLPGRAPKLLIYYDDLLPSGVSDRFSGSKSGTSASLAISGLQSEDEADYYCAAWDDSLNGVVFGGGTQLTVL
For the molecule B6, in assay [8], the binding result was “binds”.

B7: 2-A6 (antibody, V domains shown)
VH: QVTLRESGPALVKPTQTLTLTCTFSGFSLNTRGMSVSWIRQPPGKALEWLALIDWEDDKFYRTSLMTRLTISKDIFKNQVVLTMTNVDPVDTGTYYCARTYSVGVKYFGMDVWGQGTTVTVSS
VL: SSELTQDPAVSVALGQTVRITCQGDSLRNYYASWYRQEPGQAPILLIYGGNYRPSGIPDRFSGSSSGNTASLTITGAQAEDEADYYCNSRDSSGNHVVFGGGTKLTVL
notes: also called bin S2
B7: in assay [1], the “Pseudovirus IC50” value was more than 42 µg/mL.

B8: 27-A11 (antibody, V domains shown)
VH: QVQLVQSGAEVKKPGASVKVSCKASGYTFTSYYMHWVRQAPGQGLEWMGIIDPSGGSTSYAQKFQGRVTLTRDTSTSTVYMELSSLRSEDTAVYYCARSRDGYIDDAFDIWGQGTLVTVSS
VL: QSVLTQPPSVSAAPGQKVTISCSGSSSNIGNNYVSWYQQLPGTAPKLLIYDNNKRPSGIPDRFSGSKSGTSATLGITGLQTGDEADYYCGTWDSSLSAGVFGGGTKLTVL
Turning to B8, the “Pseudovirus IC50” value in [1] worked out at 12.8 µg/mL.

B9: 8-A2 (antibody, V domains shown)
VH: QVQLVQSGAEVKKPGASVKVSCKASGYTFTGYYLHWVRQAPGQGLEWMGRINPNSGGTNYAQKFQGRVTMTRDTSISTAYMELSRLTSDDTAVYYCLAVAGTGGDAFDIWGQGTTVTVSS
VL: DIQMTQSPSTLSASVGDRVTITCRASQSISSWLAWYQQKPGKAPKLLIYAASSLESGVPSRFSGSGSGTDFTLTISSLQPEDFATYYCQQGHSFPLTFGGGTKVDIK
As to B9, the “Pseudovirus IC50” value in [1] was more than 42 µg/mL.

B10: 23-A11 (antibody, V domains shown)
VH: QVQLVESGGGVVQPGRSLRLSCAASGFTFSSYGMHWVRQAPGKGLEWVAVISYDGSNKYYADSVKGRFTISRDNSKNTLYLQMNSLRAEDTAVYYCAKEGELRGAFDIWGQGTMVTVSS
VL: SYVLTQPPSVSVAPGKTARITCGGDNIESKYVHWYQQKPGQAPVLVIYYDTDRPSGIPERFSGANSGNSATLTISRVEAGDEADYYCQVWDRTSGHFVFGPGTKVTVL
As to B10, the “Pseudovirus IC50” value in [1] is more than 42 µg/mL.

B11: 21-H1 (antibody, V domains shown)
VH: QVQLVESGGGVVQPGRSLRLSCAASGFTFSSYGMHWVRQAPGKGLEWVAVISYDGSNKYYADSVKGRFTISRDNSKNTLYLQMNSLRAEDTAVYYCAKEGELRGAFDIWGQGTTVTVSS
VL: DIVMTQSPLSLPVTPGEPASISCTSSQSLLHSIGYNFVDWYLQKPGQSPQLLIYSASNRASGVPDRFSGSGSGTDFTLKISRVEAEDVGVYYCMQALQRTLYTFGQGTKVESK
B11: the “Pseudovirus IC50” value in assay [1] was more than 42 µg/mL.

B12: 5-B6 (antibody, V domains shown)
VH: QVQLVQSGAEVKKPGSSVKVSCKASGGTFSSYAISWVRQAPGQGLEWVGGIIPMFNSASYAQKFQGKVTITADKATNTAYMELSSLRSEDTAVYYCARESSGYYYVSNWFDPWGQGTLVTVSS
VL: QSVLTQPSSVSGAPGQRVTISCTGSSSNIGAGYDVHWYQQIPGTAPRLLIYANSGRASGVPDRFSGSKSGTSASLAITGLQAEDEADYYCQSYDSSLSGVVFGGGTKLTVL
With B12, in assay [1], the “Pseudovirus IC50” value was more than 42 µg/mL.

B13: 22-E8 (antibody, V domains shown)
VH: QVQLVQSGAEVKKPGSSVKVSCKASGGTFSSYAISWVRQAPGQGLEWMGGIIPIFGTTNYAQKFQGRVTITADESTSTAYMELSSLRSEDTAVYYCARDHGYYYGMDVWGQGTTVTVSS
VL: QSVLTQPSSVSAAPRQRVTLSCSGGDSNIGQNGVNWYLHVPGKAPRLVVYYDYLVSAGMSARFSGSRSGTSASLAISGLQSEDEGVYYCASWDDSLSAWVFGGGTKLTVL
With B13, the “Pseudovirus IC50” value in [1] came out at 11.2 µg/mL.

B14: 24-B8 (antibody, V domains shown)
VH: QVQLVQSGAEVKKPGSSVKVSCKASGGTFSNYAISWVRQAPGQGLEWMGGIIPILDTTNYAQKFQGRVTITADESTSTAYMELNSLRSEDTAVYYCVREEGFDYWGQGTLVTVSS
VL: QSVLTQPSSLSASPGASASLTCTLRSGINVGAYNIYWYQQKPGSPPQFVLRYNSDSDNQQGSGVPSRFSGSKDASANAGILLISGLQSEDEAEYYCMIWRSSAWVFGGGTKLTVL
In the case of B14, in [1], the “Pseudovirus IC50” value worked out at 6.26 µg/mL.

B15: 22-F7 (antibody, V domains shown)
VH: QVQLVESGGGVVQPGRSLRLSCAASGFSFTNYGMHWVRQAPGKGLEWVAVISYDGSIKYYEDSLKGRFTVSRDNSKKTLYLQMNSLRAEDTAVYYCTRERGTGIDYWGLGTLVTVSS
VL: QSALTQPASVSGYPGQSITLSCTGTKSDIGAYNYVSWYQQHPGKAPKLMVYDVSNRPSGLSNRFSGSKSDNTASLTISGLQAEDEAHYYCSSYTTSGTVVFGGGTKVTVL
notes: also called bin C
Consider B15, for which the “Pseudovirus IC50” value in assay [1] stood at 12.6 µg/mL.

B16: 11-H1 (antibody, V domains shown)
VH: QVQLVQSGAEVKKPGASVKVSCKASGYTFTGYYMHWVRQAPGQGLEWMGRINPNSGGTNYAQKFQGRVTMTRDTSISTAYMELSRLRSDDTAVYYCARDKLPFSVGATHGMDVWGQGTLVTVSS
VL: QSVLTQPPSVSEAPRQRVTISCSGSSSNIGNNAVNWYQQLPGQAPRLLIYYDNLLPSGVSDRFSASTSGTSASLAISDLRSEDEADYYCASWDDRLDSPVFGGGTKLTVL
On to B16, for which, in assay [1], the “Pseudovirus IC50” value was more than 42 µg/mL.

Broadly, the Kd is the constant that tells how readily two partners part at equilibrium. Higher therefore signals lower affinity.
